The record followed here is PMC9824680.

Substrate in this data set: O=[N+]([O-])c1ccc(O[C@@H]2O[C@H](CO)[C@@H](O)[C@H](O)[C@H]2O)cc1
Kind of data set: purified protein. The note with it: free enzyme, 100 mM citrate phosphate pH 6.5, 50 °C, pNPG 0.05–25 mM.

B1: β-Glucosidase from Thermotoga maritima (bgl) (Thermotoga maritima MSB8) (protein)
chain: MNVKKFPEGFLWGVATASYQIEGSPLADGAGMSIWHTFSHTPGNVKNGDTGDVACDHYNRWKEDIEIIEKLGVKAYRFSISWPRILPEGTGRVNQKGLDFYNRIIDTLLEKGITPFVTIYHWDLPFALQLKGGWANREIADWFAEYSRVLFENFGDRVKNWITLNEPWVVAIVGHLYGVHAPGMRDIYVAFRAVHNLLRAHARAVKVFRETVKDGKIGIVFNNGYFEPASEKEEDIRAVRFMHQFNNYPLFLNPIYRGDYPELVLEFAREYLPENYKDDMSEIQEKIDFVGLNYYSGHLVKFDPDAPAKVSFVERDLPKTAMGWEIVPEGIYWILKKVKEEYNPPEVYITENGAAFDDVVSEDGRVHDQNRIDYLKAHIGQAWKAIQEGVPLKGYFVWSLLDNFEWAEGYSKRFGIVYVDYSTQKRIVKDSGYWYSNVVKNNGLED
B1: the Km (usually the substrate concentration at which the rate is half of its maximum) turned out to be 220 ± 80 µM and the maximum rate (Vmax) (commonly the rate approached at saturating substrate) was found to be 7.27 µM/min.
